Measurements as given in US20230190867A1 (BIOINCEPT, published 2023).
No end group written: not given here.

Columns and labels:
[1] = molecular target: Serine/arginine-rich-splicing factor 1 (human, UniProt Q07955 2-248); test: PIF-agarose affinity extraction, liver lysate column of Table 4
[2] = molecular target: Acidic leucine-rich nuclear phosphoprotein 32 family Member A (human, UniProt P39687 1-249); test: as above
Cofilin-1 = Cofilin-1 (human, UniProt P23528 2-166); test: as above
Isoform C of Lamin-A/C = molecular target: T1, Isoform C of Lamin-A/C (human, UniProt P02545-2 1-572); test: as above
T1 sequence (looked up): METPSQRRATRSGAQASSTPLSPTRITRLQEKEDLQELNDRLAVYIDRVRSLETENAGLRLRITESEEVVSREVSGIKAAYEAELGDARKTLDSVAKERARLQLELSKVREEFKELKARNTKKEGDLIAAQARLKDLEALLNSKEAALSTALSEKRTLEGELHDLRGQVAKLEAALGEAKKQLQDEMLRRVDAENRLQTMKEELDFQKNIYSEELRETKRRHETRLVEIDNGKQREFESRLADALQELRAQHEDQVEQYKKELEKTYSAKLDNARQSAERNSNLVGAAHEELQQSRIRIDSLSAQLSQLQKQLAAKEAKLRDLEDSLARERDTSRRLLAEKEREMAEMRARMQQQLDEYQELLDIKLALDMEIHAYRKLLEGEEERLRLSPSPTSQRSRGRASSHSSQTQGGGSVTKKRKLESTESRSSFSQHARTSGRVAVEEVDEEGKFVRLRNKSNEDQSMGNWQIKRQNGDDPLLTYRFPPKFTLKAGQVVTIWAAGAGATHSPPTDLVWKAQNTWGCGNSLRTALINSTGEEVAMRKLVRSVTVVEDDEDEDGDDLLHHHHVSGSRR

[3] = molecular target: T2, Serine/arginine-rich-splicing factor 2 (human, UniProt Q01130 2-221); test: as above
T2 sequence (looked up): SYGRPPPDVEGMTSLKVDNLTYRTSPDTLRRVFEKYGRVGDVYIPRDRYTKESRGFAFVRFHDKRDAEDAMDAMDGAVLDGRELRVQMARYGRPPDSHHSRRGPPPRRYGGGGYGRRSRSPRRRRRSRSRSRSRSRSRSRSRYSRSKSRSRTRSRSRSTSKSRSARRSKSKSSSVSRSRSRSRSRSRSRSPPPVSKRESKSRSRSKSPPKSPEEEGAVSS

Alpha-actinin-1 = Alpha-actinin-1 (human, UniProt P12814 1-892); test: as above
14-3-3 protein eta = molecular target: T3, 14-3-3 protein eta (human, UniProt Q04917 2-246); test: as above
T3 sequence (looked up): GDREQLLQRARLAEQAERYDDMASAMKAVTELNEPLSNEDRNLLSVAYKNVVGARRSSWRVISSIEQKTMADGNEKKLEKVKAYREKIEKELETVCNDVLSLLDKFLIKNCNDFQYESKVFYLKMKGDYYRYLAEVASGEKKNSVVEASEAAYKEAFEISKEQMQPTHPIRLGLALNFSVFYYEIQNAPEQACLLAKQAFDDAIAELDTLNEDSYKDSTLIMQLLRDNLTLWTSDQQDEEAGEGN

[4] = molecular target: Eukaryotic initiation factor 4A-I (human, UniProt P60842 2-406); test: as above
[5] = molecular target: ATP synthase subunit beta, mitochondrial (human, UniProt P06576 48-529); test: as above
[6] = molecular target: Isoform 2 of Tropomyosin alpha-3 chain (human, UniProt P06753-2 2-248); test: as above
[7] = molecular target: Isoform 2 of Tropomyosin beta chain (human, UniProt P07951-2 1-284); test: as above
[8] = molecular target: Isoform 2 of Tropomyosin alpha-4 chain (human, UniProt P67936-2 1-284); test: as above
14-3-3 protein theta = molecular target: T4, 14-3-3 protein theta (human, UniProt P27348 1-245); test: as above
T4 sequence (looked up): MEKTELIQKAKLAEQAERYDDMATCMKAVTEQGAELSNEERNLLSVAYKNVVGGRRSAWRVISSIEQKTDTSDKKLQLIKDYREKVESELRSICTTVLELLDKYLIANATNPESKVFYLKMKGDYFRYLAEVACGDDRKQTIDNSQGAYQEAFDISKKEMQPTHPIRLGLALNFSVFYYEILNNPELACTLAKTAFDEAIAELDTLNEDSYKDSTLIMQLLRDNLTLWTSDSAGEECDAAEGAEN

[9] = molecular target: Isoform 2 of Heat shock protein HSP 90-alpha (human, UniProt P07900-2 1-854, limits assumed); test: as above
Cytochrome P450 26A1 = molecular target: T5, Cytochrome P450 26A1 (human, UniProt O43174 1-497); test: as above
T5 sequence (looked up): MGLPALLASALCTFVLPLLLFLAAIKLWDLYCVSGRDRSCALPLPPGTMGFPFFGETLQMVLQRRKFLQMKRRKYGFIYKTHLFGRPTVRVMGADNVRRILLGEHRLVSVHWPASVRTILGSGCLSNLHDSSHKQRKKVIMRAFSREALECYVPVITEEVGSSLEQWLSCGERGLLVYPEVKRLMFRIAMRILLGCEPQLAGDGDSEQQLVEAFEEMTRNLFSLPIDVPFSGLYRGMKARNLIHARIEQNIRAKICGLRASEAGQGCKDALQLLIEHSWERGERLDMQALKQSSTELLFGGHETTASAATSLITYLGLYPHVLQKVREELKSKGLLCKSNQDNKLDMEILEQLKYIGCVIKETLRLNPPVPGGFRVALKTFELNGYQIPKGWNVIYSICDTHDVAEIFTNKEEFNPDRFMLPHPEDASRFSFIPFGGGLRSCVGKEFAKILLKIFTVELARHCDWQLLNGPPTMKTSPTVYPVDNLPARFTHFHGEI

Annexin A2 = Annexin A2 (human, UniProt P07355 2-339); test: as above
Thioredoxin = molecular target: T6, Thioredoxin (human, UniProt P10599 2-105); test: as above
T6 sequence (looked up): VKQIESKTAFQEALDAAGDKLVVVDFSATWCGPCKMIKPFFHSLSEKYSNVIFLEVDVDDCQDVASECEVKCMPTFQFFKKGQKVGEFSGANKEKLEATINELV

PRDX4 = molecular target: T7, PRDX4 (human, UniProt Q13162 38-271); test: as above
T7 sequence (looked up): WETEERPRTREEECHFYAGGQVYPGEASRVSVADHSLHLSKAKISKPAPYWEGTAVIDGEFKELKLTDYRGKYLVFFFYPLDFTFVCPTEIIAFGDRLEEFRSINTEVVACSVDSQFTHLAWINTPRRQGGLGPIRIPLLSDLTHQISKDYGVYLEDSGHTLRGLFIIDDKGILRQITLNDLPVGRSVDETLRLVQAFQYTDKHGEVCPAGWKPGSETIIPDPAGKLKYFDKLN

Nucleolin = Nucleolin (human, UniProt P19338 2-710); test: as above
[10] = molecular target: T8, 14-3-3 protein beta/alpha (human, UniProt P31946 1-246); test: as above
T8 sequence (looked up): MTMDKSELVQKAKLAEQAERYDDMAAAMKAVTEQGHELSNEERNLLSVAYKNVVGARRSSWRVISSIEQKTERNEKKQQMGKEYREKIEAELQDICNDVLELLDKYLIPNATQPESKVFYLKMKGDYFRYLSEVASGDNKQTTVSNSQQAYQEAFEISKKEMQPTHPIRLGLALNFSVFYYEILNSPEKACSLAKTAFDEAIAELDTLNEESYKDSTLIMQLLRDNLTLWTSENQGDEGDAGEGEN

[11] = molecular target: Actin, alpha skeletal muscle (human, UniProt P68133 3-377); test: as above
[12] = molecular target: T9, 14-3-3 protein zeta/delta (human, UniProt P63104 1-245); test: as above
T9 sequence (looked up): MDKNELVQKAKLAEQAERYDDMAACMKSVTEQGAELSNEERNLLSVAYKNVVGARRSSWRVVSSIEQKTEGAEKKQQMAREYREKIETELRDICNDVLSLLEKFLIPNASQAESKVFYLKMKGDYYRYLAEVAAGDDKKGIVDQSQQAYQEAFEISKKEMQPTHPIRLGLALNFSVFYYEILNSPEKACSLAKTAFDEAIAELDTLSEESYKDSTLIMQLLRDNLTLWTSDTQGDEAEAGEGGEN

[13] = molecular target: T10, D-3-phosphoglycerate dehydrogenase (human, UniProt O43175 2-533); test: as above
T10 sequence (looked up): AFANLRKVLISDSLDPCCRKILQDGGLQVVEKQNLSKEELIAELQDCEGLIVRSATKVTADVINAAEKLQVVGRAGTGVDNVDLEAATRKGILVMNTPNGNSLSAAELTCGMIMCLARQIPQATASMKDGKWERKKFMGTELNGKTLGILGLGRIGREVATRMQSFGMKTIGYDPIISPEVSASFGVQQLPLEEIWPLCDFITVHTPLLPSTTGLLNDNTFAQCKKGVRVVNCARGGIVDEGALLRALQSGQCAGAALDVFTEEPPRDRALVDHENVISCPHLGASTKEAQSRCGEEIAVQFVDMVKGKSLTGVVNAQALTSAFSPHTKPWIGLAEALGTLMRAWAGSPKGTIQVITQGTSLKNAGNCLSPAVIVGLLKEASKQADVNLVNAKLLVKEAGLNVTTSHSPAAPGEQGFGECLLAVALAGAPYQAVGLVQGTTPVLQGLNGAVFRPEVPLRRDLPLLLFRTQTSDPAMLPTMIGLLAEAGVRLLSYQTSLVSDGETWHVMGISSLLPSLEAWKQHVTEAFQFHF

14-3-3 protein gamma = molecular target: T11, 14-3-3 protein gamma (human, UniProt P61981 1-247); test: as above
T11 sequence (looked up): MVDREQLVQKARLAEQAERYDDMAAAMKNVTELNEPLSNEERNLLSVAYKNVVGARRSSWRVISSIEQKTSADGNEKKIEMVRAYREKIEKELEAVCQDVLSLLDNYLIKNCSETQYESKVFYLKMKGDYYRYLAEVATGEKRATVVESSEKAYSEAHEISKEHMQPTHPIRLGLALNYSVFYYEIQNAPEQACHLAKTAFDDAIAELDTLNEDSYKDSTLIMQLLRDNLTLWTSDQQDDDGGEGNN

[14] = molecular target: 40S ribosomal protein S3a (human, UniProt P61247 2-264); test: as above
Isoform 2 of Protein SET = Isoform 2 of Protein SET (human, UniProt Q01105-2 2-277); test: as above
[15] = molecular target: T12, Elongation factor 1-alpha 1 (human, UniProt P68104 2-462); test: PIF-agarose affinity extraction, liver lysate column of Table 4 (row 'Eef1a1')
T12 construct: also called Eef1a1
T12 sequence (looked up): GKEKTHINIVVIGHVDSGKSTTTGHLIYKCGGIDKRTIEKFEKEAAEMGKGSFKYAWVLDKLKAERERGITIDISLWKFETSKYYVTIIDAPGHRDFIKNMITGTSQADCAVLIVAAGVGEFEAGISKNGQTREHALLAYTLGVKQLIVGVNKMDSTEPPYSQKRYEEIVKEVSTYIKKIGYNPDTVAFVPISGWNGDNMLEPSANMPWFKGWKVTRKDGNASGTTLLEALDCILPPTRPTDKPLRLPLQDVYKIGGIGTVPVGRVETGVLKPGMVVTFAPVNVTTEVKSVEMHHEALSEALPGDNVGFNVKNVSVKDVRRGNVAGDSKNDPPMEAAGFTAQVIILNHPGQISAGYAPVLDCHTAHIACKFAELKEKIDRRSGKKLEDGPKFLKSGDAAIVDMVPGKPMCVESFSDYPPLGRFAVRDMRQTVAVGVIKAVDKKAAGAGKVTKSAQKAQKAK

Measured: binding result

B1: sPIF-1(15) (peptide)
peptide: MVRIKPGSANKPSDD
modifications: also: coupled to agarose support
notes: also called synthetic preimplantation factor
binds: all assays above
